Test results: PMC4541722

Assays:
[1] = substrate: Nc1ccn([C@@H]2O[C@H](CO)[C@@H](O)C2(F)F)c(=O)n1; assay: HPLC deamination assay, non-linear regression; format: biochemical, Homo sapiens; settings: PBS, 37 °C, 10 min, 11 nM enzyme
[2] = substrate: Nc1ccn([C@H]2C[C@H](O)[C@@H](CO)O2)c(=O)n1; assay: HPLC deamination assay, non-linear regression; format: biochemical, Homo sapiens; settings: PBS, 37 °C, 10 min, 11 nM enzyme

B1: CDAHuman (Homo sapiens) (protein)
chain: MAQKRPACTLKPECVQQLLVCSQEAKKSAYCPYSHFPVGAALLTQEGRIFKGCNIENACYPLGICAERTAIQKAVSEGYKDFRAIAIASDMQDDFISPCGACRQVMREFGTNWPVYMTKPDGTYIVMTVQELLPSSFGPEDLQKTQ
For B1, the Km [1] was 3080 ± 598 µM, the kcat [1] was 14 ± 0.91 s⁻¹ and the kcat/Km [1] was 4000 M⁻¹ s⁻¹. For the same protein, the Km [2] was 373 ± 138 µM, the kcat [2] was 7.8 ± 0.64 s⁻¹ and the kcat/Km [2] was 21000 M⁻¹ s⁻¹.
